Values quoted from earlier work, collected in paper PMC7432558.

Molecular target: TEAD1 (Homo sapiens) (UniProt P28347)
UniProt P28347, sequence (P28347 whole entry): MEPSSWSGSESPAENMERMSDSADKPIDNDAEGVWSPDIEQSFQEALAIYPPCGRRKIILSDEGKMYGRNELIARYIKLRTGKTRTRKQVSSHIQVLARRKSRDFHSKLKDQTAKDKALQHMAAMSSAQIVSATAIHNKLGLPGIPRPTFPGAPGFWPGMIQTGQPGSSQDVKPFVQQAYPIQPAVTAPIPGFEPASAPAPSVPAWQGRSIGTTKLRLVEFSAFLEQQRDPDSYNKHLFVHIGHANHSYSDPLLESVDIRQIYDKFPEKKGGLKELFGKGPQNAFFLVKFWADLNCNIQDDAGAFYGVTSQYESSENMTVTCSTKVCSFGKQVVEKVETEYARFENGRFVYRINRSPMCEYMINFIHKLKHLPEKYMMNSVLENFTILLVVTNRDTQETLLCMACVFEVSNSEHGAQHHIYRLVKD

- Kd: 0.015 µM
Substance: YAP-derived cyclic peptide 81-100 (from UniProt P46937)
